Results: patent US20230338424A1 (LENTIGEN TECHNOLOGY, published 2023)
One block for each binder: values may come before it.

Biological target: T1, recombinant human CD123-Fc (human, UniProt P26951 19-305, limits assumed)
T1 construct: Treated as one molecule; also called CD123-Fc peptide (Novoprotein); recombinant IL3R-alpha Fc-tagged; not shown: Fc tag
T1 sequence (looked up): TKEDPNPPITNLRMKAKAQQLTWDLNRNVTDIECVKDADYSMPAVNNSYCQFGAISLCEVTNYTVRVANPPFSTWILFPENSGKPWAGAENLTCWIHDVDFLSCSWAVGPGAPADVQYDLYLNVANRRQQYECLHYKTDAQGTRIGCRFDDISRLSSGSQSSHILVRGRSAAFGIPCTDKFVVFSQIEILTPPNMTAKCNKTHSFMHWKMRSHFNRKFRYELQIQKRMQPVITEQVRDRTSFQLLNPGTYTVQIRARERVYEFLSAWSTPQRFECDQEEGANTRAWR
Experiment: flow cytometry, CAR T cells stained with recombinant IL3R-alpha Fc-tagged, anti-Fc AF647
Experimental: Half million CAR T cells were washed two times in cold AutoMACS buffer supplemented with 0.5% bovine serum albumin (Miltenyi Biotec, Bergisch Gladbach, Germany) and stained with 2.5 ug/ml CD123-Fc peptide (Novoprotein, Summit, NJ), followed by anti Fc-AF647 conjugate (Jackson ImmunoResearch, West Grove, PA). The 7-Aminoactinomycin D staining (7-AAD, BD Biosciences, San Jose, CA) was added to exclude dead cells. Non-transduced cells (UTD) were used as a negative control. Cells were washed twice with AutoMACS buffer supplemented with 0.5% bovine serum albumin, resuspended in 200 ul staining buffer and acquired by flow cytometry. Flow cytometric analysis was performed on a MACSQuant® 10 Analyzer (Miltenyi Biotec), and data plots were generated using FlowJo software (Ashland, OR).
Lentiviral vectors encoding the CD123 CAR constructs were used for CAR transduction into human primary T cells at multiplicity of infection (MOI) of 40. CAR surface expression of transduced T cells by flow cytometry using recombinant IL3R-alpha Fc-tagged, followed by staining with anti-Fc Alexa Flour 647.

B1: CAR D0131 CD123 MB42-D03 CD8 BBz (other)
chain: QVQLVQSGAEVKKPGASVKVSCKASGYTFTSYGISWVRQAPGQGLEWMGWISAYNGNTNYAQKLQGRVTMTTDTSTSTAYMELRSLRSDDTAVYYCARGAYYDFWSSYSWFDPWGQGTLVTVSSGGGGSGGGGSGGGGSSYVLTQPPSVSVAPGKTARITCGGNSIGSKSVQWYQQKPGQAPVLVIYDDSDRPSGIPERFSGSNSGNTATLTISRVEAGDEADYYCQVWDSSSDVVFGGGTKLTVLAAATTTPAPRPPTPAPTIASQPLSLRPEACRPAAGGAVHTRGLDFACDIYIWAPLAGTCGVLLLSLVITLYCKRGRKKLLYIFKQPFMRPVQTTQEEDGCSCRFPEEEEGGCELRVKFSRSADAPAYQQGQNQLYNELNLGRREEYDVLDKRRGRDPEMGGKPRRKNPQEGLYNELQKDKMAEAYSEIGMKGERRRGKGHDGLYQGLSTATKDTYDALHMQALPPR
notes: Chimeric antigen receptor on transduced human primary T cells; also called EF-1a-CD123 MB42-D03 CD8 BBz; CAR123 D0131
binding result: binds

B2: CAR LTG2078 CD123 M12306 CD8 BBz (other)
chain: EVQLVQSGSELKKPGASVKVSCKASGGTFSSYAISWVRQAPGQGLEWMGGIIPIFGTANYAQKFQGRVTITADESTSTAYMELSSLRSEDTAVYYCASTARRGWDTAGPLDYWGQGTLVTVSSGGGGSGGGGSGGGGSDIQMTQSPSSLSASVGDRVTIACRASQTISRYLNWYQQKPGKAPKLLIYAASSLQSGVSSRFSGSGSGTEFTLTISSLQPEDFATYFCQQTYSPPITFGQGTRLEIKAAATTTPAPRPPTPAPTIASQPLSLRPEACRPAAGGAVHTRGLDFACDIYIWAPLAGTCGVLLLSLVITLYCKRGRKKLLYIFKQPFMRPVQTTQEEDGCSCRFPEEEEGGCELRVKFSRSADAPAYQQGQNQLYNELNLGRREEYDVLDKRRGRDPEMGGKPRRKNPQEGLYNELQKDKMAEAYSEIGMKGERRRGKGHDGLYQGLSTATKDTYDALHMQALPPR
notes: Control chimeric antigen receptor on transduced human primary T cells; Leader (residues 1-22) left out; also called EF-1a CD123 CD8 BBz
binding result: binds

B3: CAR D0132 CD123 MB42-E02 CD8 BBz (other)
chain: QVQLVQSGAEVKKPGASVKVSCKASGYTFTSYGISWVRQAPGQGLEWMGWISAYNGNTNYAQKLQGRVTMTTDTSTSTAYMELRSLRSDDTAVYYCARGAYYDFWSGYSWFDPWGQGTLVTVSSGGGGSGGGGSGGGGSQSVLTQPPSVSVAPGQTARIPCGGNNIGSKGVHWYQQKSGQAPVMVVYDDSDRPSGIPERFSGSNSGNTATLTISRVEAGDEADYYCQVWDSSGDLVLFGGGTKLTVLAAATTTPAPRPPTPAPTIASQPLSLRPEACRPAAGGAVHTRGLDFACDIYIWAPLAGTCGVLLLSLVITLYCKRGRKKLLYIFKQPFMRPVQTTQEEDGCSCRFPEEEEGGCELRVKFSRSADAPAYQQGQNQLYNELNLGRREEYDVLDKRRGRDPEMGGKPRRKNPQEGLYNELQKDKMAEAYSEIGMKGERRRGKGHDGLYQGLSTATKDTYDALHMQALPPR
notes: Chimeric antigen receptor on transduced human primary T cells; also called EF-1a-CD123 MB42-E02 CD8 BBz
binding result: binds

B5: CAR D0134 CD123 MB44-H01 CD8 BBz (other)
chain: QVQLVQSGAEVKKPGSSVKVSCKASGGTFSSYAISWVRQAPGQGLEWMGGIIPIFGTANYAQRFQGRVTITADESTSTAYMELSSLRSEDTAVYYCARGLGTSYYYYYMDVWGKGTTVTVSSGGGGSGGGGSGGGGSQSVLTQPPSASGSPGQSVTISCTGTSSDVGGYNYVSWYQQHPGKAPKLMIYEVSNRPSGVSNRFSGSKSGNTASLTISGLQAEDEADYYCSSYTSSSTPVVFGGGTKLTVLAAATTTPAPRPPTPAPTIASQPLSLRPEACRPAAGGAVHTRGLDFACDIYIWAPLAGTCGVLLLSLVITLYCKRGRKKLLYIFKQPFMRPVQTTQEEDGCSCRFPEEEEGGCELRVKFSRSADAPAYQQGQNQLYNELNLGRREEYDVLDKRRGRDPEMGGKPRRKNPQEGLYNELQKDKMAEAYSEIGMKGERRRGKGHDGLYQGLSTATKDTYDALHMQALPPR
notes: Chimeric antigen receptor on transduced human primary T cells; also called EF-1a-CD123 MB44 -H01CD8 BBz
binding result: binds

The remaining lines, values ahead:

binding result: binds
B4: CAR D0133 CD123 MB42-E12 CD8 BBz (other)
chain: QVQLVQSGAEVKKPGASVKVSCKASGYTFTSYGISWVRQAPGQGLEWMGWISAYNGNTNYAQKLQGRVTMTTDTSTSTAYMELRSLRSDDTAVYYCARGAYYDFWSSYSWFDPWGQGTLVTVSSGGGGSGGGGSGGGGSSYVLTQPPSVSVAPGKTARITCGGNNIGSKSVHWYQQKPGQAPVLVVYDDSDRPSGIPERFSGSNSGNTATLTISRVEAGDEADYYCQVWDSSSDHVVFGGGTKLTVLAAATTTPAPRPPTPAPTIASQPLSLRPEACRPAAGGAVHTRGLDFACDIYIWAPLAGTCGVLLLSLVITLYCKRGRKKLLYIFKQPFMRPVQTTQEEDGCSCRFPEEEEGGCELRVKFSRSADAPAYQQGQNQLYNELNLGRREEYDVLDKRRGRDPEMGGKPRRKNPQEGLYNELQKDKMAEAYSEIGMKGERRRGKGHDGLYQGLSTATKDTYDALHMQALPPR
notes: Chimeric antigen receptor on transduced human primary T cells; also called EF-1a-CD123 MB42-E12 CD8 BBz

binding result: binds
B6: CAR D0130 CD123 MB40-H08 CD8 BBz (other)
chain: QVQLVQSGAEVKKPGSSVKVSCKASGGTFSSYAISWVRQAPGQGLEWMGGIIPIFGTANYAQKFQGRVTITADESTSTAYMELSSLRSEDTAVYYCARNEWYSYYYYYMGVWGKGTTVTVSSGGGGSGGGGSGGGGSQSALTQPASVSGSPGQSITISCTGTSSDVGGYNYVSWYQQHPGKAPKLMIYEVSNRPSGVSNRFSGSKSGNTASLTISGLQAEDEADYYCSSYTSSSTLVVFGGGTKLTVLAAATTTPAPRPPTPAPTIASQPLSLRPEACRPAAGGAVHTRGLDFACDIYIWAPLAGTCGVLLLSLVITLYCKRGRKKLLYIFKQPFMRPVQTTQEEDGCSCRFPEEEEGGCELRVKFSRSADAPAYQQGQNQLYNELNLGRREEYDVLDKRRGRDPEMGGKPRRKNPQEGLYNELQKDKMAEAYSEIGMKGERRRGKGHDGLYQGLSTATKDTYDALHMQALPPR
notes: Chimeric antigen receptor on transduced human primary T cells; also called EF-1a-CD123 MB40-H08 CD8 BBz
